{"source": "paper PMC5724578", "about": "(Biochemistry, 2017)", "binders": {"B1": {"name": "Zyxin proline rich region, residues 41-140 (domain or fragment, human, UniProt Q15942 41-140, looked up)", "chain": "PGDSEPPPAPGAQRAQMGRVGEIPPPPPEDFPLPPPPLAGDGDDAEGALGGAFPPPPPPIEESFPPAPLEEEIFPSPPPPPEEEGGPEAPIPPPPQPREK"}}, "biological_target": "VASP EVH1 domain (wild type) (human, UniProt P50552 2-115)", "assay": "NMR titration", "data": [{"binder": "B1", "values": [{"measurement": "Kd", "result": "32.2 ± 1.7", "unit": "µM"}]}]}
